Experimental data taken from publication PMC5233613.
Entries after “also recorded” stand apart in the source; their conditions may differ. Values belong to the substance of their own block, whether it stands above or below them.

Assays:
LC3B 1-125 [1] = molecular target: LC3B 1-125 (UniProt Q9GZQ8); assay: ITC
LC3B 1-125 [2] = molecular target: LC3B 1-125 (UniProt Q9GZQ8); assay: ITC; details: reference: unphosphorylated peptide; sites S13
[3] = reference: wild-type LC3B, sites S17

Substance: FUNDC1 10-25 (from UniProt Q8IVP5) LC3B K49R
- KD (LC3B 1-125 [1]; [3]): stronger; reference 0.59 ± 0.06

Substance: FUNDC1 10-25 (from UniProt Q8IVP5) pY18 peptide
- KD (LC3B 1-125 [1]; reference: unphosphorylated peptide, sites Y18): weaker; reference 1.78 ± 0.16

Substance: FUNDC1 10-25 (from UniProt Q8IVP5) LC3B K49E
- KD (LC3B 1-125 [1]; [3]): weaker; reference 0.59 ± 0.06

Substance: FUNDC1 10-25 (from UniProt Q8IVP5) LC3B K49A
- KD (LC3B 1-125 [1]; [3]): weaker; reference 0.59 ± 0.06

The next lines start with results.

- KD (LC3B 1-125 [1]; reference: unphosphorylated peptide, sites S17): stronger; reference 1.78 ± 0.16
Substance: FUNDC1 10-25 (from UniProt Q8IVP5) pS17 peptide

- KD (LC3B 1-125 [1]; reference: unphosphorylated peptide, sites S13): weaker; reference 1.78 ± 0.16
Substance: FUNDC1 10-25 (from UniProt Q8IVP5) pS13 peptide
- KD (LC3B 1-125 [2]): weaker; reference 11.44 ± 1.14; also recorded: weaker; reference 5.62 ± 0.25
